PMC3351170 (Nucleic Acids Research, 2012)

Legend:
SEC [1] = target: the molecule itself; assay: SEC
AUC = target: the molecule itself; assay: AUC
SEC [2] = target: the molecule itself; assay: SEC; remark: listed apart in the source

B1: SATB1 EFH-AAA mutant, full length (natural protein, mouse, UniProt Q60611 1-764, looked up)
chain: MDHLNEATQGKEHSEMSNNVSDPKGPPAKIARLEQNGSPLGRGRLGSTGGKMQGVPLKHSGHLMKTNLRKGTMLPVFCVVEHYENAIEYDCKEEHAAAVLVRKDMLFNQLIEMALLSLGYSHSSAAQAKGLIQVGKWNPVPLSYVTDAPDATVADMLQDVYAVVTLKIQLHSCPKLEDLPPEQWSHTTVRNALKDLLKDMNQSSLAKECPLSQSMISSIVNSTYYANVSAAKCQEFGRWYKHFKKTKDMMVEMDSLSELSQQGANHVNFGQQPVPGNTAEQPPSPAQLSHGSQPSVRTPLPNLHPGLVSTPISPQLVNQQLVMAQLLNQQYAVNRLLAQQSLNQQYLNHPPPVSRSMNKPLEQQVSTNTEVSSEIYQWVRDELKRAGISQAVFARVAFNRTQGLLSEILRKEEDPKTASQSLLVNLRAMQNFLQLPEAERDRIYQDERERSLNAASAMGPAPLLSTPPSRPPQVKTATLATERNGKPENNTMNINASIYDEIQQEMKRAKVSQALFAKVAATKSQGWLCELLRWKEDPSPENRTLWENLSMIRRFLSLPQPERDAIYEQESNAVHHHGDRPPHIIHVPAEQIQQQQQQQQQQQQQQQPPPPPPQPQPQPQAGPRLPPRQPTVASSAESDEENRQKTRPRTKISVEALGILQSFIQDVGLYPDEEAIQTLSAQLDLPKYTIIKFFQNQRYYLKHHGKLKDNSGLEVDVAEYKDEELLKDLEESVQDKNANTLFSVKLEEELSVEGSTDVNADLKD
- binding result (SEC [1]): binds

B2: SATB1 KWN-AAA mutant, full length (natural protein, mouse, UniProt Q60611 1-764, looked up)
chain: MDHLNEATQGKEHSEMSNNVSDPKGPPAKIARLEQNGSPLGRGRLGSTGGKMQGVPLKHSGHLMKTNLRKGTMLPVFCVVEHYENAIEYDCKEEHAEFVLVRKDMLFNQLIEMALLSLGYSHSSAAQAKGLIQVGAAAPVPLSYVTDAPDATVADMLQDVYHVVTLKIQLHSCPKLEDLPPEQWSHTTVRNALKDLLKDMNQSSLAKECPLSQSMISSIVNSTYYANVSAAKCQEFGRWYKHFKKTKDMMVEMDSLSELSQQGANHVNFGQQPVPGNTAEQPPSPAQLSHGSQPSVRTPLPNLHPGLVSTPISPQLVNQQLVMAQLLNQQYAVNRLLAQQSLNQQYLNHPPPVSRSMNKPLEQQVSTNTEVSSEIYQWVRDELKRAGISQAVFARVAFNRTQGLLSEILRKEEDPKTASQSLLVNLRAMQNFLQLPEAERDRIYQDERERSLNAASAMGPAPLLSTPPSRPPQVKTATLATERNGKPENNTMNINASIYDEIQQEMKRAKVSQALFAKVAATKSQGWLCELLRWKEDPSPENRTLWENLSMIRRFLSLPQPERDAIYEQESNAVHHHGDRPPHIIHVPAEQIQQQQQQQQQQQQQQQPPPPPPQPQPQPQAGPRLPPRQPTVASSAESDEENRQKTRPRTKISVEALGILQSFIQDVGLYPDEEAIQTLSAQLDLPKYTIIKFFQNQRYYLKHHGKLKDNSGLEVDVAEYKDEELLKDLEESVQDKNANTLFSVKLEEELSVEGSTDVNADLKD
- stoichiometry N (AUC): 2

B3: SATB1 ubiquitin-like domain (ULD), residues 71-172 (domain or fragment, mouse, UniProt Q60611 71-172, looked up)
chain: GTMLPVFCVVEHYENAIEYDCKEEHAEFVLVRKDMLFNQLIEMALLSLGYSHSSAAQAKGLIQVGKWNPVPLSYVTDAPDATVADMLQDVYHVVTLKIQLHS
- stoichiometry N (SEC [2]): 4
